Data as given in doi:10.1101/2023.04.01.535177 (bioRxiv, 2023).

Key:
Assay in all cases: SEC
[1] = target: Parsonsia alboflavescens homospermidine synthase, double mutant V269I D273N (IXXXN motif) (Parsonsia alboflavescens)
[2] = target: Parsonsia alboflavescens homospermidine synthase, single mutant D273N (VXXXN motif) (Parsonsia alboflavescens)
[3] = target: Parsonsia alboflavescens homospermidine synthase, single mutant V269I (IXXXD motif) (Parsonsia alboflavescens)
[4] = target: the molecule itself

Molecule: Parsonsia alboflavescens homospermidine synthase, double mutant V269I D273N (IXXXN motif) (enzyme)
- stoichiometry N [1]: 4

Molecule: Parsonsia alboflavescens homospermidine synthase, single mutant D273N (VXXXN motif) (enzyme)
- stoichiometry N [2]: 4

Molecule: Parsonsia alboflavescens homospermidine synthase, single mutant V269I (IXXXD motif) (enzyme)
- stoichiometry N [3]: 4

B1: Parsonsia alboflavescens homospermidine synthase, wild type (VXXXD motif) (enzyme, UniProt A0A2P1M5T0 1-374, looked up)
chain: MGDDAIRQNFLDSARSNVFKALESLEGCKKIKGYDFNKGVNHRELLLSMVSTGFQASNLGDAIDVINQMRAWKLSDEPIPENCKEQEKDPKFRDSVRCKVFLGFTSNLISSGVRETIRYLAQHRMIDVLVTTAGGIEEDFIKCLAPTFKGDFSLPGAALRSKGLNRIGNLLVPNDNYCKFEDWIMPIFDKMLEEQLEEKVLWTPSRVIARLGKEINDESSYLYWAYKNKIPVYCPAITDGSIGDMLYFHSFRNPASLIVDIVQDVRNMDDEIVLAGLRKTGIIILGGGLPKHHICNANMMRNGADFAVFINTAQEFDGSDSGARPDEAISWGKIRSTAKHVKVHCDATIAFPLLVAETFAKGKSTWTKYLGYIY
- stoichiometry N [4]: 4
